Laboratory results taken from the supplement of paper PMC10567573.

B1: C2CD2L (parent)
chain: LTLKVLRSSSCGDTELLGQATLPV

Variants of: B1
Experiment: protein stability index of a GFP-peptide fusion (GPS, HEK-293T) (PSI 1-6); higher = more stable
Conditions: c terminus: a fixed tail appended
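Note: lentivirally expressed fusions sorted by FACS into six bins by GFP to DsRed ratio, PSI derived from sequencing read proportions per bin multiplied by bin number.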

Variant | protein stability index
LTLKVLASSSCGDTELLGQATLPV | 1.19
RTLKVLRSSSCGDTELLGQATLPV | 2.29
WTLKVLRSSSCGDTELLGQATLPV | 2.67
QTLKVLRSSSCGDTELLGQATLPV | 2.96
NTLKVLRSSSCGDTELLGQATLPV | 2.97
ITLKVLRSSSCGDTELLGQATLPV | 2.76
HTLKVLRSSSCGDTELLGQATLPV | 2.24
FTLKVLRSSSCGDTELLGQATLPV | 1
PTLKVLRSSSCGDTELLGQATLPV | 2.9
STLKVLRSSSCGDTELLGQATLPV | 2.74
MTLKVLRSSSCGDTELLGQATLPV | 2.63
TTLKVLRSSSCGDTELLGQATLPV | 2.04
YTLKVLRSSSCGDTELLGQATLPV | 1.77
GTLKVLRSSSCGDTELLGQATLPV | 2.56
KTLKVLRSSSCGDTELLGQATLPV | 1.99
LCLKVLRSSSCGDTELLGQATLPV | 2.32
LHLKVLRSSSCGDTELLGQATLPV | 1.3
LQLKVLRSSSCGDTELLGQATLPV | 2.93
LKLKVLRSSSCGDTELLGQATLPV | 2.17
LWLKVLRSSSCGDTELLGQATLPV | 2.99
LYLKVLRSSSCGDTELLGQATLPV | 2.94
LRLKVLRSSSCGDTELLGQATLPV | 1.64
LDLKVLRSSSCGDTELLGQATLPV | 1.95
LGLKVLRSSSCGDTELLGQATLPV | 1.93

Variant | protein stability index
LPLKVLRSSSCGDTELLGQATLPV | 2.8
LELKVLRSSSCGDTELLGQATLPV | 1.92
LILKVLRSSSCGDTELLGQATLPV | 2.9
LALKVLRSSSCGDTELLGQATLPV | 1.66
LTRKVLRSSSCGDTELLGQATLPV | 2.63
LTPKVLRSSSCGDTELLGQATLPV | 3.51
LTYKVLRSSSCGDTELLGQATLPV | 1.59
LTMKVLRSSSCGDTELLGQATLPV | 1.46
LTHKVLRSSSCGDTELLGQATLPV | 2.51
LTTKVLRSSSCGDTELLGQATLPV | 2.71
LTKKVLRSSSCGDTELLGQATLPV | 3.07
LTCKVLRSSSCGDTELLGQATLPV | 1.68
LTQKVLRSSSCGDTELLGQATLPV | 2.87
LTGKVLRSSSCGDTELLGQATLPV | 2.16
LTIKVLRSSSCGDTELLGQATLPV | 4.28
LTDKVLRSSSCGDTELLGQATLPV | 3.35
LTEKVLRSSSCGDTELLGQATLPV | 3.55
LTWKVLRSSSCGDTELLGQATLPV | 2.45
LTAKVLRSSSCGDTELLGQATLPV | 2.59
LTFKVLRSSSCGDTELLGQATLPV | 2.31
LTSKVLRSSSCGDTELLGQATLPV | 2.74
LTNKVLRSSSCGDTELLGQATLPV | 3.56
LTLGVLRSSSCGDTELLGQATLPV | 2.46
LTLPVLRSSSCGDTELLGQATLPV | 2.66

Variant | protein stability index
LTLVVLRSSSCGDTELLGQATLPV | 2.8
LTLHVLRSSSCGDTELLGQATLPV | 1.65
LTLSVLRSSSCGDTELLGQATLPV | 1.18
LTLMVLRSSSCGDTELLGQATLPV | 1.06
LTLNVLRSSSCGDTELLGQATLPV | 1.19
LTLCVLRSSSCGDTELLGQATLPV | 2.5
LTLYVLRSSSCGDTELLGQATLPV | 3.27
LTLDVLRSSSCGDTELLGQATLPV | 1.94
LTLEVLRSSSCGDTELLGQATLPV | 2.12
LTLWVLRSSSCGDTELLGQATLPV | 2.53
LTLFVLRSSSCGDTELLGQATLPV | 2.97
LTLKVKRSSSCGDTELLGQATLPV | 2.17
LTLKVTRSSSCGDTELLGQATLPV | 1.26
LTLKVFRSSSCGDTELLGQATLPV | 2.21
LTLKVPRSSSCGDTELLGQATLPV | 2.24
LTLKVARSSSCGDTELLGQATLPV | 3.16
LTLKVCRSSSCGDTELLGQATLPV | 1.69
LTLKVNRSSSCGDTELLGQATLPV | 2.19
LTLKVYRSSSCGDTELLGQATLPV | 3.33
LTLKVSRSSSCGDTELLGQATLPV | 1.89
LTLKVVRSSSCGDTELLGQATLPV | 3.39
LTLKVHRSSSCGDTELLGQATLPV | 2.13
LTLKVDRSSSCGDTELLGQATLPV | 2.47
LTLKVQRSSSCGDTELLGQATLPV | 2.59

Variant | protein stability index
LTLKVGRSSSCGDTELLGQATLPV | 1.96
LTLKVERSSSCGDTELLGQATLPV | 2.49
LTLKVIRSSSCGDTELLGQATLPV | 2.83
LTLKVRRSSSCGDTELLGQATLPV | 2.03
LTLKYLRSSSCGDTELLGQATLPV | 2.69
LTLKCLRSSSCGDTELLGQATLPV | 1.76
LTLKKLRSSSCGDTELLGQATLPV | 2.17
LTLKPLRSSSCGDTELLGQATLPV | 2.38
LTLKNLRSSSCGDTELLGQATLPV | 2.26
LTLKHLRSSSCGDTELLGQATLPV | 2.27
LTLKLLRSSSCGDTELLGQATLPV | 2.75
LTLKFLRSSSCGDTELLGQATLPV | 1.86
LTLKALRSSSCGDTELLGQATLPV | 2.3
LTLKGLRSSSCGDTELLGQATLPV | 2.52
LTLKDLRSSSCGDTELLGQATLPV | 2.97
LTLKQLRSSSCGDTELLGQATLPV | 2.3
LTLKILRSSSCGDTELLGQATLPV | 2.08
LTLKMLRSSSCGDTELLGQATLPV | 1.75
LTLKSLRSSSCGDTELLGQATLPV | 2.11
LTLKRLRSSSCGDTELLGQATLPV | 2.05
LTLKTLRSSSCGDTELLGQATLPV | 1.83
LTLKELRSSSCGDTELLGQATLPV | 2.82
